How the values were obtained:
[1] = molecular target: 2339-CAR (CD8信号肽-2339(anti-MSLN)-CD8hinge-CD28TM-CD28IC-CD3z), expressed on T cells of MSLN_CAR-T products (batch BZDS202101001 for patient S0106; same sequence for S0304); test: flow cytometry, PE-mesothelin staining of S0106 CAR-T product, no serum
[2] = molecular target: 2339-CAR (CD8信号肽-2339(anti-MSLN)-CD8hinge-CD28TM-CD28IC-CD3z), expressed on T cells of MSLN_CAR-T products (batch BZDS202101001 for patient S0106; same sequence for S0304); test: flow cytometry, PE-mesothelin staining of CAR-T product (table for S0304), no serum
[3] = molecular target: 1444-CAR (CD8信号肽-(anti-MSLN)-CD8 hinge-CD28 TM-CD28IC-CD3z), expressed on the T cells of patient S0105's MSLN_CAR-T product, batch BZDS202012001; test: flow cytometry, PE-mesothelin staining of S0105 CAR-T product, no serum
1444-CAR (CD8信号肽-(anti-MSLN)-CD8 hinge-CD28 TM-CD28IC-CD3z), expressed on the T cells of patient S0105's MSLN_CAR-T product, batch BZDS202012001, sequence (chain, as listed by the source): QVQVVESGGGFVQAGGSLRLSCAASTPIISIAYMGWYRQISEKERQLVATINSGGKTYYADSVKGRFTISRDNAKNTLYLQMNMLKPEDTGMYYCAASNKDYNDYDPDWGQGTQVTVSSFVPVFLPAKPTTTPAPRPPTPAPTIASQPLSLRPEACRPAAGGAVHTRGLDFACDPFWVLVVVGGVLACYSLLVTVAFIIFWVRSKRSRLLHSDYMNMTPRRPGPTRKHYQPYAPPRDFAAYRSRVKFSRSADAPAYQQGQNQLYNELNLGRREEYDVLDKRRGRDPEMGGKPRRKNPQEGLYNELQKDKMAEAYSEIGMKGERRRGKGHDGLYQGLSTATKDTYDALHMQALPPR

2339-CAR (CD8信号肽-2339(anti-MSLN)-CD8hinge-CD28TM-CD28IC-CD3z), expressed on T cells of MSLN_CAR-T products (batch BZDS202101001 for patient S0106; same sequence for S0304), sequence (chain, as listed by the source limits assumed): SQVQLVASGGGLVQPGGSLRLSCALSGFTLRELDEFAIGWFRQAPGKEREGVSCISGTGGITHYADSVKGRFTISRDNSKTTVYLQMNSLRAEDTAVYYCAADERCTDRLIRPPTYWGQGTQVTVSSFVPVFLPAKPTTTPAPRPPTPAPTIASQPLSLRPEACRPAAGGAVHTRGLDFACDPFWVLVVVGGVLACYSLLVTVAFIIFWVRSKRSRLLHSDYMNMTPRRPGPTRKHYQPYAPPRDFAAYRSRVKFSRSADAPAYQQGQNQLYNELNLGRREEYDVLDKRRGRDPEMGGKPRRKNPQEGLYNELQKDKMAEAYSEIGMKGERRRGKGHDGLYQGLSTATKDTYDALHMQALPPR

阳性率 (percent of T cells stained by labelled mesothelin) [1]: 96.8%
阳性率 (percent of T cells stained by labelled mesothelin) [2]: 96.8%
阳性率 (percent of T cells stained by labelled mesothelin) [3]: 32.7%
Substance: PE荧光标记的间皮素 (PE-labelled mesothelin, MSLN) (from UniProt Q13421 296-580) (ligand)

Source: patent CN116930475A
